# Results published in US10494415B2, “Insulin-like growth factor 2 (IGF2) binding agents” (Cancer Research Technology Limited, priority 2015, dated 2019).
# Target: IGF2 (Homo sapiens, UniProt P01344)
# Assay: SPR (Biacore T200) of recombinant IGF2R domain 11 mutants on immobilised biotinylated IGF2
# Type: binding
# Parameters: purchased GroPep
# Description: Surface plasmon resonance (SPR) binding analysis of recombinant M6P/IGF2R domain 11 mutants interaction with IGF2. Kon indicates association (on) rate; koff, dissociation (off) rate; RU, response units. Binding to IGF2 assessed with BIAcore T200 using purified biotinylated IGF2 and IGF1 on a streptavidin biosensor chip. Recombinant proteins were expressed either in E. coli and/or P. pastoris. All the mutants in the FG and CD loops are on the domain 11^AB5 background for the AB loop unless otherwise stated. All experiments were carried out at 25° C. in HBS-EP buffer (pH 7.4), were repeated 2-5 times on two independent BIAcore chips. nd=not determined. Data for KD expressed as mean of each experiment, and means of kon and koff are shown.
# Measurements were carried out at 25° C. in HBS-EP buffer (pH 7.4) (nd=not determined, np=no protein). Data for KD expressed as mean of each experiment, and means of kon and koff are shown.
# Measurements were carried out at 25° C. in MES-EP buffer, 20 mM MES pH 6.5, 150 mM NaCl, 3 mM EDTA, and 0.005% (v/v) surfactant P20). Data for KD expressed as mean of each experiment, and means of kon and koff are shown.
# Final kinetic analysis of mutants by SPR was conducted using a Biacore T200 biosensor at 25° C. in either HBS-EP (10 mM HEPES pH 7.4, 150 mM NaCl, 3 mM EDTA, and 0.005% (v/v) surfactant P20) or MES-EP (20 mM MES pH 6.5, 150 mM NaCl, 3 mM EDTA, and 0.005% (v/v) surfactant P20) at a flow-rate of 40 μL min^−1. […] For the analysis of the Fc-domain 11^AB5 interaction, approximately 50 RU of a biotinylated IGF2:biotinylated ubiquitin mixture (1:8 proportion) was immobilized on the CM5-streptavidin chip. This interaction was also analysed by immobilizing the Fc-domain 11^AB5 and Fc-domain 11^AB5-RHH (or Fc-domain 11^I1572A as control) by Human Antibody Capture (monoclonal mouse anti-human IgG antibody immobilised on a CM5 chip by amine coupling, GE Healthcare) with and without human IgG1 Fc fragment (Bethyl Laboratories, UK) in the control flow cell. Increasing concentrations of IGF2^1-67, proIGF2^1-104, proIGF2^1-156 and IGF1 ranging from 0.125 to 32 nM were injected. T200 BiaEvaluation software (GE Healthcare) was used to fit the resulting curves according to a 1:1 binding model. Steady state affinities were determined using the kinetic data, taking the response average at 5 seconds before injection end and for 5 seconds average. Thermodynamic data was performed across the temperature range of 10° C. to 30° C., van't Hoff and Erying plots generated and ΔH, −TΔS and ΔG values determined as previously described.
# IGF2, sequence (P01344 25-91): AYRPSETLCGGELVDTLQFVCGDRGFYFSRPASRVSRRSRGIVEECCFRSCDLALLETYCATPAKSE
"Kinetics koff (Table 1, 25° C., HBS-EP pH 7.4) [s⁻¹]","Kinetics kon (Table 1, 25° C., HBS-EP pH 7.4) [M⁻¹ s⁻¹]",Kinetics koff (Table 2) [s⁻¹],Kinetics kon (Table 2) [M⁻¹ s⁻¹],Molecule
0.0191,5.88e+06,–,–,S1602Q: domain 11 AB5 background + FG loop S1602Q (protein) MKSNEHDDCQVTNPSTGHLFDLSSLSGRAGFTAAYAKGWGVYMSICGENENCPPGVGACFGQTRISVGKANKRLRYVDQVLQLVYKDGSPCPSKQGLSYKSVISFVCRPEAGPTNRPMLISLDKQTCTLFFSWHTPLACEQATECSV
–,–,0.25,2e+06,WT + 27G (HI-NMAL): wild-type domain 11 with HI loop NMAL (clone 27G) (protein) MKSNEHDDCQVTNPSTGHLFDLSSLSGRAGFTAAYSEKGLVYMSICGENENCPPGVGACFGQTRISVGKANKRLRYVDQVLQLVYKDGSPCPSKSGLSYKSVISFVCRPEAGPTNRPMLISLNMALCTLFFSWHTPLACEQATECSV
0.0121,4.66e+06,–,–,G1603K: domain 11 AB5 background + FG loop G1603K (protein) MKSNEHDDCQVTNPSTGHLFDLSSLSGRAGFTAAYAKGWGVYMSICGENENCPPGVGACFGQTRISVGKANKRLRYVDQVLQLVYKDGSPCPSKSKLSYKSVISFVCRPEAGPTNRPMLISLDKQTCTLFFSWHTPLACEQATECSV
0.0167,4.5e+06,–,–,"Q1632A: domain 11 HI loop mutant Q1632A, probably AB5 background (protein) MKSNEHDDCQVTNPSTGHLFDLSSLSGRAGFTAAYAKGWGVYMSICGENENCPPGVGACFGQTRISVGKANKRLRYVDQVLQLVYKDGSPCPSKSGLSYKSVISFVCRPEAGPTNRPMLISLDKATCTLFFSWHTPLACEQATECSV"
–,–,0.15,1.07e+06,WT + 312G (HI-VKLM): wild-type domain 11 with HI loop VKLM (clone 312G) (protein) MKSNEHDDCQVTNPSTGHLFDLSSLSGRAGFTAAYSEKGLVYMSICGENENCPPGVGACFGQTRISVGKANKRLRYVDQVLQLVYKDGSPCPSKSGLSYKSVISFVCRPEAGPTNRPMLISLVKLMCTLFFSWHTPLACEQATECSV
>0.1,–,–,–,"K1631E: domain 11 HI loop mutant K1631E, probably AB5 background (protein) MKSNEHDDCQVTNPSTGHLFDLSSLSGRAGFTAAYAKGWGVYMSICGENENCPPGVGACFGQTRISVGKANKRLRYVDQVLQLVYKDGSPCPSKSGLSYKSVISFVCRPEAGPTNRPMLISLDEQTCTLFFSWHTPLACEQATECSV"
–,–,0.065,250000,WT + 23D (HI-HFQS): wild-type domain 11 with HI loop 1630-1633 HFQS (clone 23D) (protein) MKSNEHDDCQVTNPSTGHLFDLSSLSGRAGFTAAYSEKGLVYMSICGENENCPPGVGACFGQTRISVGKANKRLRYVDQVLQLVYKDGSPCPSKSGLSYKSVISFVCRPEAGPTNRPMLISLHFQSCTLFFSWHTPLACEQATECSV
–,–,0.10,7.4e+06,AB5 + 51F (HI-NRQS): domain 11 AB5 with HI loop NRQS (clone 51F) (protein) MKSNEHDDCQVTNPSTGHLFDLSSLSGRAGFTAAYAKGWGVYMSICGENENCPPGVGACFGQTRISVGKANKRLRYVDQVLQLVYKDGSPCPSKSGLSYKSVISFVCRPEAGPTNRPMLISLNRQSCTLFFSWHTPLACEQATECSV
0.0196,800000,–,–,"T1633A: domain 11 HI loop mutant T1633A, probably AB5 background (protein) MKSNEHDDCQVTNPSTGHLFDLSSLSGRAGFTAAYAKGWGVYMSICGENENCPPGVGACFGQTRISVGKANKRLRYVDQVLQLVYKDGSPCPSKSGLSYKSVISFVCRPEAGPTNRPMLISLDKQACTLFFSWHTPLACEQATECSV"
0.0867,7.18e+06,–,–,"K1631R: domain 11 HI loop mutant K1631R, probably AB5 background (protein) MKSNEHDDCQVTNPSTGHLFDLSSLSGRAGFTAAYAKGWGVYMSICGENENCPPGVGACFGQTRISVGKANKRLRYVDQVLQLVYKDGSPCPSKSGLSYKSVISFVCRPEAGPTNRPMLISLDRQTCTLFFSWHTPLACEQATECSV"
–,–,0.24,1.89e+06,WT + 26C (HI-DMQT): wild-type domain 11 with HI loop DMQT (clone 26C) (protein) MKSNEHDDCQVTNPSTGHLFDLSSLSGRAGFTAAYSEKGLVYMSICGENENCPPGVGACFGQTRISVGKANKRLRYVDQVLQLVYKDGSPCPSKSGLSYKSVISFVCRPEAGPTNRPMLISLDMQTCTLFFSWHTPLACEQATECSV
0.0202,520000,–,–,"Q1632E: domain 11 HI loop mutant Q1632E, probably AB5 background (protein) MKSNEHDDCQVTNPSTGHLFDLSSLSGRAGFTAAYAKGWGVYMSICGENENCPPGVGACFGQTRISVGKANKRLRYVDQVLQLVYKDGSPCPSKSGLSYKSVISFVCRPEAGPTNRPMLISLDKETCTLFFSWHTPLACEQATECSV"
0.0397,790000,–,–,L1604A: domain 11 AB5 background + FG loop L1604A (protein) MKSNEHDDCQVTNPSTGHLFDLSSLSGRAGFTAAYAKGWGVYMSICGENENCPPGVGACFGQTRISVGKANKRLRYVDQVLQLVYKDGSPCPSKSGASYKSVISFVCRPEAGPTNRPMLISLDKQTCTLFFSWHTPLACEQATECSV
0.0175,3.18e+06,–,–,"Q1632L: domain 11 HI loop mutant Q1632L, probably AB5 background (protein) MKSNEHDDCQVTNPSTGHLFDLSSLSGRAGFTAAYAKGWGVYMSICGENENCPPGVGACFGQTRISVGKANKRLRYVDQVLQLVYKDGSPCPSKSGLSYKSVISFVCRPEAGPTNRPMLISLDKLTCTLFFSWHTPLACEQATECSV"
0.0212,1.96e+06,–,–,"Q1632K: domain 11 HI loop mutant Q1632K, probably AB5 background (protein) MKSNEHDDCQVTNPSTGHLFDLSSLSGRAGFTAAYAKGWGVYMSICGENENCPPGVGACFGQTRISVGKANKRLRYVDQVLQLVYKDGSPCPSKSGLSYKSVISFVCRPEAGPTNRPMLISLDKKTCTLFFSWHTPLACEQATECSV"
0.0183,2.14e+06,–,–,G1603A: domain 11 AB5 background + FG loop G1603A (protein) MKSNEHDDCQVTNPSTGHLFDLSSLSGRAGFTAAYAKGWGVYMSICGENENCPPGVGACFGQTRISVGKANKRLRYVDQVLQLVYKDGSPCPSKSALSYKSVISFVCRPEAGPTNRPMLISLDKQTCTLFFSWHTPLACEQATECSV
0.0180,4.5e+06,–,–,W1546F: domain 11 AB5 with W1546F in the AB loop (protein) MKSNEHDDCQVTNPSTGHLFDLSSLSGRAGFTAAYAKGFGVYMSICGENENCPPGVGACFGQTRISVGKANKRLRYVDQVLQLVYKDGSPCPSKSGLSYKSVISFVCRPEAGPTNRPMLISLDKQTCTLFFSWHTPLACEQATECSV
